Measured values as given in patent US20230042913A1 (COUNCIL OF THE QUEENSLAND INSTITUTE OF MEDICAL RESEARCH, published 2023).

T1: mouse RANKL transiently expressed by HEK-293 cells (mouse, UniProt O35235 1-316)
T1 construct: whole, on cells; also called muRANKL
T1 sequence (looked up): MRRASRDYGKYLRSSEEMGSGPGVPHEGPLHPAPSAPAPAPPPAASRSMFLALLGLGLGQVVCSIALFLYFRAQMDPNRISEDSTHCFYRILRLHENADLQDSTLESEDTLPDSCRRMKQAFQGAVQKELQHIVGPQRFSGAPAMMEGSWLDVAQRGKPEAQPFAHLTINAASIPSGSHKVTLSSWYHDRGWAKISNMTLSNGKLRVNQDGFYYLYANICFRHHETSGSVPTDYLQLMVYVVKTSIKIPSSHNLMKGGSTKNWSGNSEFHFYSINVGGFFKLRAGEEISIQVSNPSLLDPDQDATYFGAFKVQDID

T2: mouse PD-1 transiently expressed by HEK-293 cells (mouse, UniProt Q02242 25-288)
T2 construct: whole, on cells; also called muPD-1
T2 sequence (looked up): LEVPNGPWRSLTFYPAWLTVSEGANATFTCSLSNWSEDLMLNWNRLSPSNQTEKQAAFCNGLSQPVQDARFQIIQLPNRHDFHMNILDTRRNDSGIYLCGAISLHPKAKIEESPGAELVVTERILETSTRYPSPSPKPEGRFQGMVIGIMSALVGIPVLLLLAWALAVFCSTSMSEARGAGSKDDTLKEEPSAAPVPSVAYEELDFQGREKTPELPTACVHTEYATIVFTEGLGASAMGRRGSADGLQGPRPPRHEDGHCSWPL


Tests used:
[1] = biological target: T1, mouse RANKL transiently expressed by …; assay: flow cytometry competition: blocking of biotinylated RANK-Fc binding to muRANKL on transfected HEK-293 cells
Method: FIG. 29 is a graphical representation showing antibody competition of RANKL-RANK binding. HEK-293 cells transiently transfected with mouse RANKL were incubated with various concentrations of either anti-RANKL/PD-1 bispecific, anti-RANKL mAb IK22-5, rat IgG2a isotype control or human IgG1 isotype control for 30 minutes on ice. Secondly, cells were incubated with 2.5 μg of biotinylated recombinant murine RANK-Fc for an additional 30 minutes on ice. After two washes with FACS buffer (PBS+10% FCS), a final incubation with Streptavidin-APC for extra 30 minutes on ice. Samples and data were analyzed on a Fortessa 4 (BD Biosciences) flow cytometer and analyzed with FlowJo v10 software (Tree Star, Inc.). Representative FACS plots and summary data of inhibition of RANK-Fc binding of two independent experiments are shown.

[2] = biological target: T2, mouse PD-1 transiently expressed by …; assay: summary sentence of Example 25
[3] = biological target: T2, mouse PD-1 transiently expressed by …; assay: flow cytometry competition: blocking of biotinylated PD-L1-Fc binding to muPD-1 on transfected HEK-293 cells
Method: FIG. 31 is a graphical representation showing antibody competition of PD-1/PD-L1 binding. HEK-293 cells transiently transfected with mouse PD-1 were incubated with various concentrations of either anti-RANKL/PD-1 bispecific, anti-PD-1 mAb RMP1-14, rat IgG2a isotype control or human IgG1 isotype control for 30 minutes on ice. Secondly, cells were incubated with 2.5 μg of biotinylated recombinant murine PD-L1-Fc for an additional 30 minutes on ice. After two washes with FACS buffer (PBS+10% FCS), a final incubation with Streptavidin-APC for extra 30 minutes on ice. Samples and data were analyzed on a Fortessa 4 (BD Biosciences) flow cytometer and analyzed with FlowJo v10 software (Tree Star, Inc.). Representative FACS plots and summary data of inhibition of PD-L1-Fc binding of two independent experiments are shown.

Binder | IC50 [1] [µg/mL] | binding result [2] | binding result [3]
anti-RANKL mAb IK22-5 (rat IgG2a) (antibody, V domains shown, Rat IgG2a monoclonal antibody; also called anti-muRANKL antibody (IK22-5 rat IgG2a)) VH: QVQLKESGPGLVLSSATLSLTCTVSGFSLTNYDVSWIRHLPGKGLEWMGGVWLSGNTEYNSDFKSRLSISRDISKSQVFLKMSNLKIEDTGTYYCARDIGTTSDYWGQGVTVTVSS VL: DIQVTQSPSFLSASVGDRVTFNCKTSQNINKYLAWYQAKFGEGPKLLIFNADSLQSGIPPRFSGSGSGTDFTLTISGLQPEDFATYFCLQYNSWPTFGSGTKLEIK | 1.1 |  | 
bispecific anti-RANKL/PD-1 antibody (IK22-5/RMP1-14) (bispecific antibody, also called RMP1-14 CH-CL X IK22/5 WT bispecific; anti-RANKL/PD-1 bispecific) heavy 1: QVQLKESGPGLVLSSATLSLTCTVSGFSLTNYDVSWIRHLPGKGLEWMGGVWLSGNTEYNSDFKSRLSISRDISKSQVFLKMSNLKIEDTGTYYCARDIGTTSDYWGQGVTVTVSSASTKGPSVFPLAPSSKSTSGGTAALGCLVKDYFPEPVTVSWNSGALTSGVHTFPAVLQSSGLYSLSSVVTVPSSSLGTQTYICNVNHKPSNTKVDKKVEPKSCDKTHTCPPCPAPELLGGPSVFLFPPKPKDTLMISRTPEVTCVVVAVSHEDPEVKFNWYVDGVEVHNAKTKPREEQYNSTYRVVSVLTVLHQDWLNGKEYKCKVSNKALPAPIEKTISKAKGQPREPQVYTLPPCRDELTKNQVSLWCLVKGFYPSDIAVEWESNGQPENNYKTTPPVLDSDGSFFLYSKLTVDKSRWQQGNVFSCSVLHEALHNHYTQKSLSLSPGK light 1: DIQVTQSPSFLSASVGDRVTFNCKTSQNINKYLAWYQAKFGEGPKLLIFNADSLQSGIPPRFSGSGSGTDFTLTISGLQPEDFATYFCLQYNSWPTFGSGTKLEIKRTVAAPSVFIFPPSDEQLKSGTASVVCLLNNFYPREAKVQWKVDNALQSGNSQESVTEQDSKDSTYSLSSTLTLSKADYEKHKVYACEVTHQGLSSPVTKSFNRGEC heavy 2: EVQLQESGPGLVKPSQSLSLTCSVTGYSITSSYRWNWIRKFPGNRLEWMGYINSAGISNYNPSLKRRISITRDTSKNQFFLQVNSVTTEDAATYYCARSDNMGTTPFTYWGQGTLVTVSSRTVAAPSVFIFPPSDEQLKSGTASVVCLLNNFYPREAKVQWKVDNALQSGNSQESVTEQDSKDSTYSLSSTLTLSKADYEKHKVYACEVTHQGLSSPVTKSFNRGECDKTHTCPPCPAPELLGGPSVFLFPPKPKDTLMISRTPEVTCVVVAVSHEDPEVKFNWYVDGVEVHNAKTKPREEQYNSTYRVVSVLTVLHQDWLNGKEYKCKVSNKALPAPIEKTISKAKGQPREPQVCTLPPSRDELTKNQVSLSCAVKGFYPSDIAVEWESNGQPENNYKTTPPVLDSDGSFFLVSKLTVDKSRWQQGNVFSCSVLHEALHNHYTQKSLSLSPGK light 2: DIVMTQGTLPNPVPSGESVSITCRSSKSLLYSDGKTYLNWYLQRPGQSPQLLIYWMSTRASGVSDRFSGSGSGTDFTLKISGVEAEDVGIYYCQQGLEFPTFGGGTKLELKASTKGPSVFPLAPSSKSTSGGTAALGCLVKDYFPEPVTVSWNSGALTSGVHTFPAVLQSSGLYSLSSVVTVPSSSLGTQTYICNVNHKPSNTKVDKKVEPKSC | 2.6 | binds | 
anti-PD-1 mAb RMP1-14 (rat IgG2a) (antibody, V domains shown, Rat IgG2a monoclonal antibody; also called anti-muPD-1 antibody (RMP1-14 rat IgG2a)) VH: EVQLQESGPGLVKPSQSLSLTCSVTGYSITSSYRWNWIRKFPGNRLEWMGYINSAGISNYNPSLKRRISITRDTSKNQFFLQVNSVTTEDAATYYCARSDNMGTTPFTYWGQGTLVTVSS VL: DIVMTQGTLPNPVPSGESVSITCRSSKSLLYSDGKTYLNWYLQRPGQSPQLLIYWMSTRASGVSDRFSGSGSGTDFTLKISGVEAEDVGIYYCQQGLEFPTFGGGTKLELK |  |  | binds
